The values below come from patent US20220340673A1 (HARBOUR BIOMED SUZHOU, published 2022).

Test [1] concerns the target T1, human BCMA on cells (HEK293T/huBCMA; NCI-H929) (human, UniProt Q02223 1-184).
T1 construct: whole, on cells; also called human BCMA molecules on NCI-H929 cell line
T1 sequence (looked up): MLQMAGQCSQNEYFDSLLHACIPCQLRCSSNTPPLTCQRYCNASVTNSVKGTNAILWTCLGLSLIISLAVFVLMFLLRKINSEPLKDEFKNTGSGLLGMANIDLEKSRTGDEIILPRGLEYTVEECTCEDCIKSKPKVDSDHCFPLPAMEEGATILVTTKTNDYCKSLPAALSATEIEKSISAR
Put plainly: FACS on NCI-H929 cells.

Test [2] concerns the target T2, human BCMA-Fc, Avitag recombinant protein (ACRO, Cat. BC7-H82F0) (human, UniProt Q02223 1-54).
T2 construct: extracellular domain; Bought reagent; amine-coupled to the CM5 chip in the Biacore assay; also called recombinant human BCMA-ECD-Fc; human BCMA recombinant protein; not shown: Fc and Avitag of the bought protein
T2 sequence (looked up): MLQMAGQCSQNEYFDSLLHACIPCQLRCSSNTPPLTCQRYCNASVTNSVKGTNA
Put plainly: Biacore, antigen coupled to a CM5 chip, PR003178 injected at 12-0.375 nM, 1:1 kinetic fit [E]. As for the experimental part:
(§1) Human BCMA-Fc, Avitag recombinant protein (ACRO, Cat. BC7-H82F0), cynomolgus monkey BCMA-Fc, Avitag (ACRO, Cat. BCA-C82F4) were purchased from ACRO, human CD3e/g ECD-hFc recombinant protein (Lot.20190508002), cynomolgus monkey CD3e/g ECD-hFc recombinant protein and human (Lot.2018040001) were purchased from ChemPartner.
(§2) The flow rate was set as 10 μl/min and four antigens were coupled on four channels on two CMS: 1) the injection time was set as 300 s, and 50 mM of NHS and 200 mM of EDC were freshly mixed at 1:1 volume ratio and injected into four channels; 2) human BCMA-Fc, Avitag recombinant protein, cynomolgus monkey BCMA-FC, Avitag, human CD3e/g ECD-hFc recombinant protein and cynomolgus CD3e/g ECD-hFc recombinant protein were all diluted to 1 μg/ml with sodium acetate (Cat# BR-1003-50) (pH 4.5), and injected into channel 2, 3 and 4 of chip 1 and channel 2 of chip 2, respectively; 3) 1 M of ethanolamine (pH8.5) was injected for 300 s to block the remaining active carboxyl groups on the chips surface. After blockage, the instrument was continued to be equilibrated with 1 ×HBS- EP+buffer for two hours. The final coupling amounts of human BCMA-Fc, Avitag recombinant protein, cynomolgus monkey BCMA-Fc, Avitag, human CD3e/g ECD-hFc recombinant protein and cynomolgus monkey CD3e/g ECD-hFc recombinant protein were 120 RU, 70 RU, 200 RU and 290 RU, respectively.
(§3) A multi-cycle kinetic mode was set, and each cycle included the binding of PRO03178 as well as the regeneration of the chip. PRO03178 with two-fold gradient dilution was injected into four channels at a flow rate of 30 μl/min. A binding time of 180 s and a dissociation time of 400 s or 600s were set. Finally, 10 mM of glycine-hydrochloric acid (pH 1.5) (GE Life Sciences, Cat# BR-1003-54) was injected at the same flow rate for 60 s to regenerate the chip.
In general terms: In SPR one partner is held on a chip, and binding of the other changes the refractive index at the surface.

Test [3] concerns the target T3, human CD3e/g ECD-hFc recombinant protein (human, UniProt P07766 23-126; P09693 23-116).
T3 construct: extracellular domain; Bought from ChemPartner; not shown: human Fc
Described as above. The procedure: as §1, §2, §3

The target in test [4] is T1, human BCMA on cells (HEK293T/huBCMA; …). Put plainly: cell-based or functional assay.
The target of test [5] is T2, human BCMA-Fc, Avitag recombinant …. Put plainly: SPR (Biacore T200), antigen amine-coupled on CM5, antibody as analyte, 1:1 fit. As for the experimental part: as §2
(§4) A multi-cycle kinetic mode was set, and each cycle included the binding of PRO03178 as well as the regeneration of the chip. […]
(§5) The experimental results were analyzed by using Biacore T200 analysis software, and channel 1 was deducted as reference channel, and a 1:1 kinetic fit model was selected as the analysis model.

Test [6] has as its target T3, human CD3e/g ECD-hFc recombinant protein. The test is described as above. As for the experimental part: as §2, §4, §5
The target of test [7] is T1, human BCMA on cells (HEK293T/huBCMA; …). Nature of the test: FACS on HEK293T cell strain overexpressing human BCMA [C]. An excerpt:
To study the in vitro binding activity of the BCMA arm of the BCMA×CD3 bispecific antibody, HEK293T cell strain overexpressing human BCMA (HEK293T/huBCMA) and HEK293T cell strain overexpressing cynomolgus monkey BCMA (HEK293T/cynoBCMA) were used for antibody binding experiments at cellular level. Briefly, HEK293T/huBCMA cells and HEK293T/cynoBCMA cells were digested and resuspended with DMEM complete medium. The cell density of the two was adjusted to 1×10⁶ cells/mL, respectively. Cells were inoculated at 100 μL cells/well in a 96 well V-bottom plate (Corning, Cat#: 3894), followed by the addition of test antibodies at 100 μL/well, which is gradient diluted at 3 folds of the concentration with 2 folds of the final concentration. Cells were incubated at 4° C. for 1 hour in the dark. Afterwards, the cells were washed twice with 100 μL/well of pre-cooled PBS, centrifuged at 500 g for 5 min at 4° C., and followed by discarding the supernatant. 100 μL/well of fluorescent secondary antibody (Alexa Fluor 488-conjugated AffiniPure Goat Anti-Human IgG, Fcγ Fragment Specific, Jackson, Cat#: 109-545-06, 1:500 dilution) was added and incubated for 30 min at 4° C. in the dark. […] Finally, the cells were resuspended with 200 μL/well of pre-cooled PBS, and the fluorescence luminescence signal values were read by BD FACS CANTOII. […]

T3 sequence (P07766 23-126, chain 1 of 2): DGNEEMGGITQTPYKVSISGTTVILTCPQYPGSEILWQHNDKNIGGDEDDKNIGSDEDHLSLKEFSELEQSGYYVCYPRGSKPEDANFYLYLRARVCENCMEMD
T3 sequence (P09693 23-116, chain 2 of 2): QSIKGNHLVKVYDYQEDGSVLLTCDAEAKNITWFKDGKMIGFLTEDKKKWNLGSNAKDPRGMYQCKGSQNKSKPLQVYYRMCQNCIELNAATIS

B1: BCMA x CD3 bispecific antibody PR003178 (bispecific antibody, human IgG1, lambda, L234A L235A)
heavy 1: not shown
light: QAVVTQEPSLTVSPGGTVTLTCRSSTGAVTTSNYANWVQQKPGQAPRGLIGGTNKRAPWTPARFSGSLLGDKAALTLLGAQPEDEAEYFCALWYSNLWVFGGGTKLTVLGQPKAAPSVTLFPPSSEELQANKATLVCLISDFYPGAVTVAWKADSSPVKAGVETTTPSKQSNNKYAASSYLSLTPEQWKSHRSYSCQVTHEGSTVEKTVAPTECS
heavy 2: EVQLVETGGGLIQPGGSLRLSCAASGFTVSDNYMTWVRQAPGKGLEWVSVIFSGGNTYYADSVKGRFTISRDNAKNTLYLQMNSLRAEDTALYYCARRNYDDTRGTDVFDIWGQGTMVTVSSGGGGSGGGGSGGGGSEVQLVETGGGLIQPGGSLRLSCAASGFTVSDNYMTWVRQAPGKGLEWVSVIFSGGNTYYADSVKGRFTISRDNAKNTLYLQMNSLRAEDTALYYCARRNYDDTRGTDVFDIWGQGTMVTVSSASEPKSSDKTHTCPPCPAPEAAGGPSVFLFPPKPKDTLMISRTPEVTCVVVDVSHEDPEVKFNWYVDGVEVHNAKTKPREEQYNSTYRVVSVLTVLHQDWLNGKEYKCKVSNKALPAPIEKTISKAKGQPREPQVCTLPPSREEMTKNQVSLSCAVKGFYPSDIAVEWESNGQPENNYKTTPPVLDSDGSFFLVSKLTVDKSRWQQGNVFSCSVMHEALHNHYTQKSLSLSPGK
notes: Three chains: HC1 (anti-CD3 heavy, knob, LALA), LC (anti-CD3 lambda light), HC2 (two tandem anti-BCMA VH of PR001046 joined by (G4S)3, then Fc hole, LALA); also called PRO03178
Turning to B1, in test [1], the “fold lower EC50 than positive control 2” value is ~8 fold. Besides, the koff was 0.000167 s⁻¹ in test [2] and 0.0149 s⁻¹ in test [3]. Further, the kon amounted to 1.76e+06 M⁻¹ s⁻¹ in test [2] and 588000 M⁻¹ s⁻¹ in test [3]. Besides, in test [4], the “EC50 of the killing curve (LDH release, human PBMC effector cells, NCI-H929 target cells), fold against positive control 2” value is 10 fold. For the same molecule, the dissociation constant (Kd) is ~0.0949 nM in test [5] and ~25.4 nM in test [6]. The molecule further registered an EC50 in test [7] of 0.188 nM.

Broadly, the koff is the rate constant with which the complex falls apart. As a reminder, the kon is the second-order rate constant of association. For orientation: Kd means the equilibrium constant for the complex coming apart. What is called EC50 is the midpoint of the concentration-response curve. High values mean lower potency in that assay, low ones higher potency in that assay.
